What all share (details): protein: recombinant; tags: His-tag (Ni-NTA purified); copies: 1;1;1;1
The target in series [1] is NELF double mutant (patch + ΔRRM) (UniProt Q9H3P2;Q8WX92;Q8IXH7;P18615 1-528;1-628;1-590;1-261+333-380, R291Q;K315M;K371M;K372M;K374M;K384M;K388M;R419Q;R506Q;internal_change). In words: EMSA (NELF release from PEC); large molar excess; 20 mM Na-HEPES pH 7.4, 100 mM NaCl, 25 mM KCl, 3 mM MgCl2, 2 mM DTT; assembly 30 °C, eRNA incubation 15-20 min at room temperature; 3.5% native PAGE 0.5x TBE at 4 °C; PEC about 0.1 µM NELF 0.15 µM.
NELF double mutant (patch + ΔRRM), sequence (Q9H3P2 whole entry, stated change not applied, chain 1 of 4): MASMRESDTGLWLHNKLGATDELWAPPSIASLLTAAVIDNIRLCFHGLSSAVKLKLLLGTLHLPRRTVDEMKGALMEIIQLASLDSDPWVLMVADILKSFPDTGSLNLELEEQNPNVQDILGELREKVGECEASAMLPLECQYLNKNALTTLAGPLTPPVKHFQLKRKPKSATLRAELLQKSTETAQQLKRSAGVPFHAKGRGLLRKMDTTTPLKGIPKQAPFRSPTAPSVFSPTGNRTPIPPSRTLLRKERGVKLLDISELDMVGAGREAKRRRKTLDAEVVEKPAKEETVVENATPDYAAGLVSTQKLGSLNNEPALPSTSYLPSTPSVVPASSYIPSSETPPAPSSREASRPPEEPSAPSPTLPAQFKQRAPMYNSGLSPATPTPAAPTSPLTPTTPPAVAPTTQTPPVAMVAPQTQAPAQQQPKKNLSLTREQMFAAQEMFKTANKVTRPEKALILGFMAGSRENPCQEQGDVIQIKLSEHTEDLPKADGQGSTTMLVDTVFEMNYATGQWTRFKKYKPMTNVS
NELF double mutant (patch + ΔRRM), sequence (Q8WX92 other isoform, or with tags, fused parts or gaps with the stated changes, chain 2 of 4): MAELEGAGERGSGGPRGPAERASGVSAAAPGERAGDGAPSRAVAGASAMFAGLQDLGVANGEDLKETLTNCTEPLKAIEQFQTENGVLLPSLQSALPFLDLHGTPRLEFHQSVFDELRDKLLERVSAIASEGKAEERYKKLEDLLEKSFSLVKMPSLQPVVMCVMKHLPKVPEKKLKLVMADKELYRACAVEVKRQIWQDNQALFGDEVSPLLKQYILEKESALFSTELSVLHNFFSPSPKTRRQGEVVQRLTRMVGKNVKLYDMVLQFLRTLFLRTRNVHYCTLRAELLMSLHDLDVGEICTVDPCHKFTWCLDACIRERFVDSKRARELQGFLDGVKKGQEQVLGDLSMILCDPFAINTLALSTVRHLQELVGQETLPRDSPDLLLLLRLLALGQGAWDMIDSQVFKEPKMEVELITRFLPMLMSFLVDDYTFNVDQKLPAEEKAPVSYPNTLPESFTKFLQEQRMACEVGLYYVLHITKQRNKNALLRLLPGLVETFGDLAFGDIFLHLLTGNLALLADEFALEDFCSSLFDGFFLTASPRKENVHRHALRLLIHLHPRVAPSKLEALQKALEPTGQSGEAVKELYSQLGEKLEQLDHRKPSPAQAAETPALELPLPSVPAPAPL
NELF double mutant (patch + ΔRRM), sequence (Q8IXH7 whole entry R291Q/K315M/K371M/K372M/K374M/K384M/K388M/R419Q/R506Q, chain 3 of 4): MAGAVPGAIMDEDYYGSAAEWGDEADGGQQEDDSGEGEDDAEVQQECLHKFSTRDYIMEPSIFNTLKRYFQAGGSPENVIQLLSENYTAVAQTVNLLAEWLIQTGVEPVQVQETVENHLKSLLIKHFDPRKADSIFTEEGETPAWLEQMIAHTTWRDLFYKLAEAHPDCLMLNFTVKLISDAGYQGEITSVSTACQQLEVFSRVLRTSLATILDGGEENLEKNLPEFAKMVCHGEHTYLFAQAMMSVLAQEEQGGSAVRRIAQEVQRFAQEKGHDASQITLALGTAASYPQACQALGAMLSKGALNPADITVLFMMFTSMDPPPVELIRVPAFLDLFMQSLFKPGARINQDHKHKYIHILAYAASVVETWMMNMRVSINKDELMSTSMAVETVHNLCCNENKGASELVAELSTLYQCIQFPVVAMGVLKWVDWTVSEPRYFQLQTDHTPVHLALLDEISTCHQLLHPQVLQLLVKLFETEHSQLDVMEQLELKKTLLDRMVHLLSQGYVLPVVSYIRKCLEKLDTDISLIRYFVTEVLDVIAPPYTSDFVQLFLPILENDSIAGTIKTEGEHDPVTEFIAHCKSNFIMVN
NELF double mutant (patch + ΔRRM), sequence (P18615 other isoform, or with tags, fused parts or gaps with the stated changes, chain 4 of 4): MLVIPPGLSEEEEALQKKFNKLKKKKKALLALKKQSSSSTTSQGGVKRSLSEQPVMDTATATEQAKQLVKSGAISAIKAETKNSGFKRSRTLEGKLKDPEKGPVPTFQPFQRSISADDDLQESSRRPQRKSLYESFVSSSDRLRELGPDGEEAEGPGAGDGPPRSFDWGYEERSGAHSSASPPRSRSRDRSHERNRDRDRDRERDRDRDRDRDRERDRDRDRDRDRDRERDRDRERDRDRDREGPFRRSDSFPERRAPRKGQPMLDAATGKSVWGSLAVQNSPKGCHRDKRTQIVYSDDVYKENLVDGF

For series [2], the target named is T1, NELF-EΔRRM complex (NELFΔRRM) (UniProt Q9H3P2;Q8WX92;Q8IXH7;P18615 1-528;1-628;1-590;1-261+333-380, internal_change). In words: EMSA (NELF release from PEC); apparent Kd; NELF in PEC on N1; 20 mM Na-HEPES pH 7.4, 100 mM NaCl, 25 mM KCl, 3 mM MgCl2, 2 mM DTT; assembly 30 °C, eRNA incubation 15-20 min at room temperature; 3.5% native PAGE 0.5x TBE at 4 °C; PEC about 0.1 µM NELF 0.15 µM.
T1 sequence (Q9H3P2 whole entry, stated change not applied, chain 1 of 4): as the sequence (Q9H3P2 whole entry, stated change not applied, chain 1 of 4) above
T1 sequence (Q8WX92 other isoform, or with tags, fused parts or gaps | mutant, chain 2 of 4): as the sequence (Q8WX92 other isoform, or with tags, fused parts or gaps with the stated changes, chain 2 of 4) above
T1 sequence (Q8IXH7 whole entry, stated change not applied, chain 3 of 4): as the sequence (Q8IXH7 whole entry R291Q/K315M/K371M/K372M/K374M/K384M/K388M/R419Q/R506Q, chain 3 of 4) above, with Q291R, M315K, M371K, M372K, M374K, M384K, M388K, Q419R, Q506R counted along it
T1 sequence (P18615 other isoform, or with tags, fused parts or gaps | mutant, chain 4 of 4): as the sequence (P18615 other isoform, or with tags, fused parts or gaps with the stated changes, chain 4 of 4) above

The target in series [3] is T1, NELF-EΔRRM complex (NELFΔRRM). In words: EMSA (NELF release from PEC); release not abolished; 20 mM Na-HEPES pH 7.4, 100 mM NaCl, 25 mM KCl, 3 mM MgCl2, 2 mM DTT; assembly 30 °C, eRNA incubation 15-20 min at room temperature; 3.5% native PAGE 0.5x TBE at 4 °C; PEC about 0.1 µM NELF 0.15 µM.

B1: Nr4a1-(a) eRNA 1-200 (structured_RNA)
RNA: GCGGUGAGAGUGAUUUUGUAACUCUAAAGUUACAGAGGGUUUUGUUGUGUUUUUAAUCAAGAGCCCUGGUUUUGAUUUGUGGGUAAUCUUUCUUUAAACCUCGCCCAUUUCCGGCCUGGUGACCUGGGCCACUUUCUCAUGUUGACCCAGAUGAUCCUCAGUAGCAAGAACAAAAGGACAACAGAUGUGGAAACACUCAA
Take B1: the binding result in series [1] is “no binding”.

B2: Arc eRNA 1-200 (structured_RNA)
RNA: AAAACACAGCCGCCAGGGUGGGGGUGGCAGCCUUGAACGCCACCCUCUAACUGGCAUGGGCAUCUGAACUCUCAGCUCUGGGGGUGUCUCAUCGGCCAGCUGGCAGUAGCCCCCCCAACCCCACCCCUGAUGGAGAACUGCUCCUGUAUGAUCCAGCCCAGUGGGCGCACAGGGAGUUGGUAGGUGGGCACUCAGACUGG
As to B2, the binding result in series [1] is recorded as “no binding”. Besides, in series [2], the Kd turned out to be 0.33 µM.

B3: Nr4a1-(a) eRNA 1-100 (structured_RNA)
RNA: GCGGUGAGAGUGAUUUUGUAACUCUAAAGUUACAGAGGGUUUUGUUGUGUUUUUAAUCAAGAGCCCUGGUUUUGAUUUGUGGGUAAUCUUUCUUUAAACC
Regarding B3, the binding result in series [3] is listed as “binds”.

B4: Arc eRNA 1-100 (structured_RNA)
RNA: AAAACACAGCCGCCAGGGUGGGGGUGGCAGCCUUGAACGCCACCCUCUAACUGGCAUGGGCAUCUGAACUCUCAGCUCUGGGGGUGUCUCAUCGGCCAGC
As for B4, in series [2], the Kd turned out to be 7.8 µM.

B5: Nr4a1-(b) eRNA 1-200 (structured_RNA)
RNA: AGUAGGGGCAUGGCUCGCCCGAGGCUCGGUGCUGCCCCGCCGCCCGCCGCGUUCCUUCCGGCUUGGUGUUCCGGUGGCGGGACCAGGGAAGGGAAGCUCGGGCCAAAUCCGGUCUCGGGCGAGGUGACAGAAAUUUGGAAUCUGACACCGGAGGAUGGCUGAGCUCCGGCUCCUCUGGGAGUGCAAUUACGGACUUCGCA
With B5, the binding result in series [1] was “no binding”.
